The text below walks through data of paper PMC10747570.

In the experiment the target is Hibiscus green spot virus movement protein BMB2 (Hibiscus green spot virus). The experiment is described as follows: FRET or BRET; FRET-FLIM: GFP fluorescence lifetime measured in PAMBs of N. benthamiana leaf cells coexpressing BMB2-GFP (donor) and BMB2-mRFP (acceptor), 3 dpi; control without acceptor: BMB2-GFP with non-fused BMB2.

“Hibiscus green spot virus movement protein BMB2 (natural protein)” yielded an FRET efficiency of 69.8% and a GFP excited-state lifetime with the acceptor of 0.74 ns.
